Laboratory results as given in publication PMC3500560.

Target: His6-tagged SYD-2LH1 (C. elegans) (UniProt Q21049)
Experiment: pull-down

Sequence of His6-tagged SYD-2LH1 (C. elegans) (Q21049 91-217): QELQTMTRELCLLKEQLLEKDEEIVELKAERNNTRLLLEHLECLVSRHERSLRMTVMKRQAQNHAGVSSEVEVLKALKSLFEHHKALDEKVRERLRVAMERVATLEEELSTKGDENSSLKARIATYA

GST-LH1Δ (Δ179–198) (from UniProt Q21049 1-1139) (domain or fragment)
binding relative to SYD-2LH1 (percent): < 10%
